Source: article PMC9482650, “Quantitative fragmentomics allow affinity mapping of interactomes” (Nature Communications, 2022)

Key:
Assay in all cases: holdup assay
Parameters in all cases: key: below the threshold = too weak to quantify, mostly under pKd 3.1 to 4
[1] = molecular target: DLG1_1, Q12959
[2] = molecular target: T1, LIN7B, Q9HAP6
T1 sequence (Q9HAP6 88-185, limits assumed, looked up): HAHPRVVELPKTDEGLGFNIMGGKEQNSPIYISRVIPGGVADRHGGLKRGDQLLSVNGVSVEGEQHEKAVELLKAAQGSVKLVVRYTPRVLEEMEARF

[3] = molecular target: T2, NHERF3_1, Q5T2W1
T2 sequence (Q5T2W1 4-100, limits assumed, looked up): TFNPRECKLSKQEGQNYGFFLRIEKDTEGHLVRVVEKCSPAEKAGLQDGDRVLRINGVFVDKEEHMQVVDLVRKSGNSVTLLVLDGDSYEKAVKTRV

[4] = molecular target: T3, TIAM2, Q8IVF5
T3 sequence (Q8IVF5 885-986, limits assumed, looked up): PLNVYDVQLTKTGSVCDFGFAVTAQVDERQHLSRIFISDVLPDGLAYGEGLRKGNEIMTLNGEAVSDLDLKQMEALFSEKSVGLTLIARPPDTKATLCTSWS

[5] = molecular target: NHERF4_1, Q86UT5-2
NHERF4_1, Q86UT5-2, sequence (Q86UT5 other isoform, or with tags, fused parts or gaps): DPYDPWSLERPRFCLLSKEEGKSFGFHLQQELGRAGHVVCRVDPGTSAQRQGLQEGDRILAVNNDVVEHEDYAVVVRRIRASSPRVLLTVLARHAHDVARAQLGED

[6] = molecular target: DLG5_1, Q8TDM6
DLG5_1, Q8TDM6, sequence (Q8TDM6 617-713): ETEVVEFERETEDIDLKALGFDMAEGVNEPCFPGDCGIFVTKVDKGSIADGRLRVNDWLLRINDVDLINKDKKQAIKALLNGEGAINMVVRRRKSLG

[7] = molecular target: T4, RADIL, Q96JH8
T4 sequence (Q96JH8 971-1071, limits assumed, looked up): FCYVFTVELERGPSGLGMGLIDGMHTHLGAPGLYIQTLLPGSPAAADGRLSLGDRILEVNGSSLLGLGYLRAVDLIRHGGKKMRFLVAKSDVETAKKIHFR

[8] = molecular target: T5, RHPN1, Q8TCX5
T5 sequence (Q8TCX5 508-602, limits assumed, looked up): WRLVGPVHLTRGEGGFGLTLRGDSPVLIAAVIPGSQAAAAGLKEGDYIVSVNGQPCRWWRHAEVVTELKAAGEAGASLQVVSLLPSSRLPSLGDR

[9] = molecular target: PDZRN4_1, Q6ZMN7
PDZRN4_1, Q6ZMN7, sequence (Q6ZMN7 213-318): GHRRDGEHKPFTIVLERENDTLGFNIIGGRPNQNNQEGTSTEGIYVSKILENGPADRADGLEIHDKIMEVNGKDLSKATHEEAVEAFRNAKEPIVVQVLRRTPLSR

[10] = molecular target: Inadl_8, Q8NI35
Inadl_8, Q8NI35, sequence (Q8NI35 1425-1530): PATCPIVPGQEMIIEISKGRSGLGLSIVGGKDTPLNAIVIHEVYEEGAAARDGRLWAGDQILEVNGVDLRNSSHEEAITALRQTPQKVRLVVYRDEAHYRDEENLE

[11] = molecular target: T6, DFNB31_3, Q9P202
T6 sequence (Q9P202 811-907, limits assumed, looked up): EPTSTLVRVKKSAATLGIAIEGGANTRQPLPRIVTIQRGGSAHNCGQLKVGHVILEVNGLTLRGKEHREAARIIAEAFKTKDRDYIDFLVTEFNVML

[12] = molecular target: GIPC2, Q8TF65
GIPC2, Q8TF65, sequence (Q8TF65 112-203): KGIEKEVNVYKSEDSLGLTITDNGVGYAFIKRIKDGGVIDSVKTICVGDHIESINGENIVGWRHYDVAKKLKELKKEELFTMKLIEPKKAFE

[13] = molecular target: T7, MPP2, Q14168
T7 sequence (Q14168 180-250, limits assumed, looked up): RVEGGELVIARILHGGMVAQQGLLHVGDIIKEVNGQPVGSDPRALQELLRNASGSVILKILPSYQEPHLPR

[14] = molecular target: PDLIM1, O00151
PDLIM1, O00151, sequence (O00151 1-87): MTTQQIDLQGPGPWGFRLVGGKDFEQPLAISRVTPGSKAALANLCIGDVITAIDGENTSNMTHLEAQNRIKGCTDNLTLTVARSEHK

[15] = molecular target: T8, NHERF3_3, Q5T2W1
T8 sequence (Q5T2W1 238-333, limits assumed, looked up): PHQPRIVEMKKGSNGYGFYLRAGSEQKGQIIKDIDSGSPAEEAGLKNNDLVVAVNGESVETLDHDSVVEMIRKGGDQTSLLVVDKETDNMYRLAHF

[16] = molecular target: GRID2IP_1, A4D2P6
GRID2IP_1, A4D2P6, sequence (A4D2P6 1-87): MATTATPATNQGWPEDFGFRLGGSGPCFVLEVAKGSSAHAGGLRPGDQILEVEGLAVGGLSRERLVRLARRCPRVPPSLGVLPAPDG

[17] = molecular target: DLG2_2, Q15700
DLG2_2, Q15700, sequence (Q15700 189-283): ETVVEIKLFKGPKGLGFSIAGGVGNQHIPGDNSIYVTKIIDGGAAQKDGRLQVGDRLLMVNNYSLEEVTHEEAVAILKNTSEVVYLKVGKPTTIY

[18] = molecular target: MAGI2_2, Q86UL8
MAGI2_2, Q86UL8, sequence (Q86UL8 410-522): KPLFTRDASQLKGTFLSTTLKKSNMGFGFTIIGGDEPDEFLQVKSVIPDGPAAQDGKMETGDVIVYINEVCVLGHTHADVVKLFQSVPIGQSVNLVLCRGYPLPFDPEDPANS

[19] = molecular target: DLG1_2, Q12959
[20] = molecular target: T9, ARHGAP21, Q5T5U3
T9 sequence (Q5T5U3 45-169, limits assumed, looked up): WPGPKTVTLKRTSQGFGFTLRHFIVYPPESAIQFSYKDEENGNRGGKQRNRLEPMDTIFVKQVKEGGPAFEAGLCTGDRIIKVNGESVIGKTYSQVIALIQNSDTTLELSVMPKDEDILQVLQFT

[21] = molecular target: Inadl_6, Q8NI35
Inadl_6, Q8NI35, sequence (Q8NI35 1058-1167): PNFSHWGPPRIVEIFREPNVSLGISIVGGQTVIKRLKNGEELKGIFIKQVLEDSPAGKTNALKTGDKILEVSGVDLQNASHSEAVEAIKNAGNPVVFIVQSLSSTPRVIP

[22] = molecular target: GRASP, Q7Z6J2
GRASP, Q7Z6J2, sequence (Q7Z6J2 96-193): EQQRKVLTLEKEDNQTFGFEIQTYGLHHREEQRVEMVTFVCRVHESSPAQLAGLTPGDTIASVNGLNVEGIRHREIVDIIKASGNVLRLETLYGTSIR

[23] = molecular target: Inadl_10, Q8NI35
Inadl_10, Q8NI35, sequence (Q8NI35 1673-1763): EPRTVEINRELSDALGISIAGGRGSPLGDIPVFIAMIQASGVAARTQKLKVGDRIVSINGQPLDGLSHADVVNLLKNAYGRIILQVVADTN

[24] = molecular target: ARHGEF12, Q9NZN5-2
ARHGEF12, Q9NZN5-2, sequence (Q9NZN5 other isoform, or with tags, fused parts or gaps): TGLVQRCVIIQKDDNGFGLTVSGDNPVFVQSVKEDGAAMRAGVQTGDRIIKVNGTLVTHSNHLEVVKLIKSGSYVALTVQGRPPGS

[25] = molecular target: LDB3, O75112
LDB3, O75112, sequence (O75112 1-94): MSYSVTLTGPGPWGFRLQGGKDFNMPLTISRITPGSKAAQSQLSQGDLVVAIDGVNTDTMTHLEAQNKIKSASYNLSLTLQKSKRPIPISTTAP

[26] = molecular target: T10, APBA2_2, Q99767
T10 sequence (Q99767 654-744, limits assumed, looked up): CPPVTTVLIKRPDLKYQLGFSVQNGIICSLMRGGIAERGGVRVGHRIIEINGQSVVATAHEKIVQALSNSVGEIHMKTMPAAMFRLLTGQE

[27] = molecular target: Inadl_2, Q8NI35
Inadl_2, Q8NI35, sequence (Q8NI35 238-335): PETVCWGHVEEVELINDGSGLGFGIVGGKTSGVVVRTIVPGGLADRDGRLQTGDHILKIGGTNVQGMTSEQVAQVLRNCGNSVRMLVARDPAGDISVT

[28] = plain residues with an end cap or a label only (N-terminal biotin on a linker: ttds)
[29] = plain residues with an end cap or a label only (N-terminal biotin on a linker: ado-ado)

Binder: SRRPRTETQV [HPV31-E6, P17386]
- pKd [1, 28]: 5.16
- pKd [2, 28]: 3.68
- pKd [3, 28]: 4.32
- pKd [4, 28]: below the threshold
- pKd [5, 28]: below the threshold
- pKd [6, 28]: below the threshold
- pKd [7, 28]: below the threshold
- pKd [8, 28]: 3.74
- pKd [9, 28]: 4.19
- pKd [10, 28]: below the threshold
- pKd [11, 28]: below the threshold
- pKd [12, 28]: below the threshold
- pKd [13, 28]: below the threshold
- pKd [14, 28]: below the threshold
- pKd [15, 28]: below the threshold
- pKd [16, 28]: below the threshold
- pKd [17, 28]: 5.37
- pKd [18, 28]: 6.38
- pKd [19, 28]: 5.79
- pKd [20, 28]: below the threshold
- pKd [21, 28]: below the threshold
- pKd [22, 28]: below the threshold
- pKd [23, 28]: below the threshold
- pKd [24, 28]: 3.86
- pKd [25, 28]: below the threshold
- pKd [26, 28]: below the threshold
- pKd [27, 28]: below the threshold

Binder: QFQYAKESYI [TAGAP, Q8N103]
- pKd [1, 28]: 4.16
- pKd [2, 28]: below the threshold
- pKd [3, 28]: 5.08
- pKd [4, 28]: below the threshold
- pKd [5, 28]: below the threshold
- pKd [6, 28]: below the threshold
- pKd [7, 28]: 3.69
- pKd [8, 28]: 4.68
- pKd [9, 28]: 3.96
- pKd [10, 28]: 3.78
- pKd [11, 28]: below the threshold
- pKd [12, 28]: 3.78
- pKd [13, 28]: below the threshold
- pKd [14, 28]: below the threshold
- pKd [15, 28]: below the threshold
- pKd [16, 28]: below the threshold
- pKd [17, 28]: 4.16
- pKd [18, 28]: 3.5
- pKd [19, 28]: 4.85
- pKd [20, 28]: below the threshold
- pKd [21, 28]: 4.06
- pKd [22, 28]: below the threshold
- pKd [23, 28]: below the threshold
- pKd [24, 28]: 3.91
- pKd [25, 28]: below the threshold
- pKd [26, 28]: below the threshold
- pKd [27, 28]: below the threshold

Binder: LCALPKVTTV [AGMAT, Q9BSE5]
- pKd [1, 28]: 4.97
- pKd [2, 28]: 3.94
- pKd [3, 28]: below the threshold
- pKd [4, 28]: below the threshold
- pKd [5, 28]: below the threshold
- pKd [6, 28]: below the threshold
- pKd [7, 28]: 4.59
- pKd [8, 28]: 4.24
- pKd [9, 28]: 3.75
- pKd [10, 28]: 4.82
- pKd [11, 28]: 3.69
- pKd [12, 28]: below the threshold
- pKd [13, 28]: below the threshold
- pKd [14, 28]: below the threshold
- pKd [15, 28]: below the threshold
- pKd [16, 28]: below the threshold
- pKd [17, 28]: 5.35
- pKd [18, 28]: 4.18
- pKd [19, 28]: 5.87
- pKd [20, 28]: below the threshold
- pKd [21, 28]: 3.88
- pKd [22, 28]: 4.47
- pKd [23, 28]: below the threshold
- pKd [24, 28]: 4.67
- pKd [25, 28]: below the threshold
- pKd [26, 28]: below the threshold
- pKd [27, 28]: below the threshold

Binder: FVHPILQSAV [PRKCA, P17252]
- pKd [1, 29]: 3.81
- pKd [2, 29]: below the threshold
- pKd [3, 29]: 4.82
- pKd [4, 29]: below the threshold
- pKd [5, 29]: 3.78
- pKd [6, 29]: below the threshold
- pKd [7, 29]: 3.57
- pKd [8, 29]: 4.18
- pKd [9, 29]: 3.92
- pKd [10, 29]: 4.71
- pKd [11, 29]: 3.57
- pKd [12, 29]: below the threshold
- pKd [13, 29]: below the threshold
- pKd [14, 29]: below the threshold
- pKd [15, 29]: below the threshold
- pKd [16, 29]: below the threshold
- pKd [17, 29]: 4.04
- pKd [18, 29]: 3.9
- pKd [19, 29]: 4.52
- pKd [20, 29]: 3.84
- pKd [21, 29]: below the threshold
- pKd [22, 29]: 5.13
- pKd [23, 29]: below the threshold
- pKd [24, 29]: 4.22
- pKd [25, 29]: below the threshold
- pKd [26, 29]: below the threshold
- pKd [27, 29]: below the threshold
